What was measured:
ACE2 receptor [1] = molecular target: ACE2 receptor (UniProt Q9BYF1); assay: ELISA; competitive ELISA of ACE2 binding; AH-adsorbed DCFHP incubated overnight at 40 °C, against a reference freshly adsorbed to AH
ACE2 receptor [2] = molecular target: ACE2 receptor (UniProt Q9BYF1); assay: ELISA; competitive ELISA of ACE2 binding; DCFHP at 50 mcg/mL in 20 mM Tris, 150 mM NaCl, 5% Sucrose, pH 7.5, in solution or adsorbed to 1.5 mg/mL Alhydrogel (AH); time zero or freshly adsorbed; read against a DCFHP reference sample; who was immobilised is told only in the Supplemental methods
ACE2 receptor [3] = molecular target: ACE2 receptor (UniProt Q9BYF1); assay: ELISA; competitive ELISA of ACE2 binding; DCFHP samples (in solution, or with AH and 0, 20 or 200 mM sodium phosphate) stored at 4 °C (3-21 days, 1 month, or up to 4 weeks) before the assay
ACE2 receptor [4] = molecular target: ACE2 receptor (UniProt Q9BYF1); assay: ELISA; competitive ELISA of ACE2 binding; AH-adsorbed DCFHP incubated overnight at 50 °C, against a reference freshly adsorbed to AH

UniProt Q9BYF1, sequence (Q9BYF1 18-740 limits assumed): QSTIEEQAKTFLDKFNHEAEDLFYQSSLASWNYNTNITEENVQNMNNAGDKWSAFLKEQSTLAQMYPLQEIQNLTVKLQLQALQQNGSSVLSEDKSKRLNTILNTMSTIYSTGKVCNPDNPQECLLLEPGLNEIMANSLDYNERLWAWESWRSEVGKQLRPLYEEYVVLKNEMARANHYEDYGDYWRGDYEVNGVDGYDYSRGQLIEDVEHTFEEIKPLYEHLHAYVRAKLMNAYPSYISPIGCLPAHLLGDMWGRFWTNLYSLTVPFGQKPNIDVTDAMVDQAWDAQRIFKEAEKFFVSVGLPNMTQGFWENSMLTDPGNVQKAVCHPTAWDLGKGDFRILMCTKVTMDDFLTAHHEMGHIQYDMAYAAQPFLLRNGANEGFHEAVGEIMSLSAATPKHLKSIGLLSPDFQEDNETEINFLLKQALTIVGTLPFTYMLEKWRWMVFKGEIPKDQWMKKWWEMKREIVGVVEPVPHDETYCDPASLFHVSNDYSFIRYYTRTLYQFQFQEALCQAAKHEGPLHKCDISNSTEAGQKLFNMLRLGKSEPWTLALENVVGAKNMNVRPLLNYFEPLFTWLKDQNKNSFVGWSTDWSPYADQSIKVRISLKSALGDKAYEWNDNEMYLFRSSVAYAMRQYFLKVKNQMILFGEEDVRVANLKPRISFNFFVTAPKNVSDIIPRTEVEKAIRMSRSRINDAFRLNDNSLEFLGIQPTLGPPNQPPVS

Delta-C70-Ferritin-HexaPro (DCFHP), SARS-CoV-2 spike ferritin nanoparticle vaccine antigen, produced in Expi293 cells
loss of ACE2 binding after overnight at 40 °C (ACE2 receptor [1]): 60%
native antigen concentration by ACE2 competitive ELISA (target 50 mcg/mL), freshly adsorbed to AH, time zero (ACE2 receptor [2]): 48 µg/mL
native antigen by ACE2 competitive ELISA after 1 month at 4 °C, AH with 0 mM phosphate (ACE2 receptor [3]): 80 µg
native antigen by ACE2 competitive ELISA after 1 month at 4 °C, AH with 200 mM phosphate (ACE2 receptor [3]): 50 µg
native antigen concentration by ACE2 competitive ELISA (target 50 mcg/mL), AH-adsorbed, stored at 4 °C for 3-21 days (ACE2 receptor [3]): 75 µg/mL
loss of ACE2 binding after overnight at 50 °C (ACE2 receptor [4]): 80%

Reference: article PMC11181998
